# What was measured:
# Assay in all cases: cell-based or functional assay
# [1] = target: recombinant NS3 protease with the NS4A peptide cofactor … (molar ratio enzyme:cofactor 1:100) (hepatitis C virus genotype 1b)
# [2] = target: human leukocyte elastase (human) (UniProt P08246)
# [3] = target: human liver cathepsin B (human) (UniProt P07858)
# [4] = target: porcine pancreatic elastase (porcine) (UniProt P00772)
# [5] = target: recombinant HCV NS3 protease type 1b (amino acid 1027 to 1206) (hepatitis C virus genotype 1b)
# [6] = target: bovine pancreatic α-chymotrypsin (bovine) (UniProt P00766)
# Sequence of porcine pancreatic elastase (porcine) (P00772 27-266): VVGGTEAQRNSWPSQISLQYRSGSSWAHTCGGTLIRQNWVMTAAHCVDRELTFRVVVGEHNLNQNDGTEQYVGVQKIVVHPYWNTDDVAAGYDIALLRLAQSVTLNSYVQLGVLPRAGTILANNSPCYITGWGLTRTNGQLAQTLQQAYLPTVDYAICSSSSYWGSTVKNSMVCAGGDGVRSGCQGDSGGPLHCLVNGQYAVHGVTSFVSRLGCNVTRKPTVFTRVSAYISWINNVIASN
# Sequence of human leukocyte elastase (human) (P08246 30-247 limits assumed): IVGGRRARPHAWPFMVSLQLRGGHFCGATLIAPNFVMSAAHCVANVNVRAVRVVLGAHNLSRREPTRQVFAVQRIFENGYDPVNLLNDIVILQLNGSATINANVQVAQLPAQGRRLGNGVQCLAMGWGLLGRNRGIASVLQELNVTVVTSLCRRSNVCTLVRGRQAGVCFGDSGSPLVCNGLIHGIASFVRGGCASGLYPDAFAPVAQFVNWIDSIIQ
Substance,IC50 [1],other results
"Compound 520 (Table 5): Ac-Chg-Val-Pro(1-NpCH2O)-P1(R14 Pr; 1R, 2?) (peptide)",22.5 µM,–
"Compound 513 (Table 5): Ac-Chg-Val-Pro(1-NpCH2O)-P1(R14 Et; 1R, 2R) (peptide)",–,HLE [2]: > 300 µM
"Compound 503 (Table 5): Ac-Chg-Chg-Pro(1-NpCH2O)-P1(R14 Et; 1R, 2?) (peptide)",1.35 µM,HLE [2]: 250 µM
"Compound 501 (Table 5): Ac-Chg-Val-Pro(OBn)-P1(R14 Et; 1R, 2R) (peptide)",17.1 µM,–
"Compound 505 (Table 5): Ac-Chg-Chg-Pro(1-NpCH2O)-P1(R14 Et; 1R, 2R) (peptide)",0.55 µM,–
"Compound 519 (Table 5): Ac-Chg-Val-Pro(1-NpCH2O)-P1(R14 Pr; 1R, 2?) (peptide)",3.45 µM,–
Compound 249 (Table 2): Ac-Chg-Val-Pro((4I-Ph)O)-Acca (peptide),9.7 µM,–
"Compound 502 (Table 5): Ac-Chg-Val-Pro(OBn)-P1(R14 Et; 1R, 2?) (peptide)",12.6 µM,–
"Compound 521 (Table 5): Ac-Asp-D-Val-Chg-Val-Pro(1-NpCH2O)-P1(R14 Et; 1R, 2R) (peptide)",0.024 µM,HLE [2]: > 300 µM
Compound 203 (Table 2): Ac-Asp-D-Glu-Ile-Val-Pro(O-Bn)-Nva (peptide),0.6 µM,Other [3]: > 300 µM; PPE [4]: > 300 µM; HLE [2]: > 300 µM
Compound 123 (Table 1): Ac-Asp-Asp-Ile-Val-Pro-Nva (peptide),220 µM,PPE [4]: > 300 µM; HLE [2]: > 300 µM
Compound 127 (Table 1): Ac-Asp-Asp-Ile-Val-Pip-Nva (peptide),–,IC50 [5]: 605 µM
"Compound 512 (Table 5): Ac-Chg-Val-Pro(1-NpCH2O)-P1(R14 (CH2)2Ph; 1R, 2?) (peptide)",19.5 µM,–
Compound 214 (Table 2): Ac-Asp-D-Glu-Chg-Val-Pro(2-NpCH2O)-Nva (peptide),0.028 µM,Other [6]: > 300 µM; Other [3]: > 300 µM; PPE [4]: > 300 µM; HLE [2]: > 300 µM
"Compound 511 (Table 5): Ac-Chg-Val-Pro(1-NpCH2O)-P1(R14 CH2OCH2Ph; 1R, 2?) (peptide)",32.5 µM,–
"Compound 507 (Table 5): Ac-Chg-Val-Pro(1-NpCH2O)-P1(R14 Me; 1R, 2?) (peptide)",5.1 µM,–
Compound 268 (Table 2): Ac-Chg-Val-Pro((3Br-Ph)CH2O)-Acca (peptide),24 µM,–
"Compound 514 (Table 5): Ac-Chg-Val-Pro(1-NpCH2O)-P1(R14 Et; 1S, 2S) (peptide)",27.5 µM,–
"Compound 516 (Table 5): Ac-Chg-Val-Pro(1-NpCH2O)-P1(R14 Bz; 1R, 2?) (peptide)",46.5 µM,–
Compound 110 (Table 1): Ac-Asp-Asp-Chg-Val-Pro-Cys (peptide),–,IC50 [5]: 24 µM
Compound 115 (Table 1): Ac-Asp-Asp-Ile-Val-Abu-Cys (peptide),–,IC50 [5]: 58 µM
"Compound 508 (Table 5): Ac-Chg-Val-Pro(1-NpCH2O)-P1(R14 CHMe2; 1R, 2?) (peptide)",4.15 µM,–
"Compound 506 (Table 5): Ac-Chg-Chg-Pro(1-NpCH2O)-P1(R14 Et; 1S, 2S) (peptide)",–,HLE [2]: > 400 µM
"Compound 515 (Table 5): Ac-Chg-Val-Pro(1-NpCH2O)-P1(R14 Bz; 1R, 2?) (peptide)",9.2 µM,–
Compound 210 (Table 2): Ac-Asp-D-Glu-Chg-Val-Pro(O-Bn)-Cys (peptide),0.033 µM,Other [6]: > 300 µM; PPE [4]: > 300 µM; HLE [2]: > 300 µM

Substance,IC50 [1],other results
Compound 242 (Table 2): Ac-Chg-Val-Pro((4Br-Ph)S)-Acca (peptide),36 µM,–
Compound 129 (Table 1): Ac-Asp-Tbg-Ile-Val-Pro-Nva (peptide),–,IC50 [5]: 270 µM
Compound 206 (Table 2): Ac-Asp-Asp-Ile-Val-Pro(p-tolyl-methoxy)-Nva (peptide),–,IC50 [5]: 6.4 µM
"Compound 504 (Table 5): Ac-Chg-Chg-Pro(1-NpCH2O)-P1(R14 Et; 1R, 2?) (peptide)",9.53 µM,–
Compound 252 (Table 2): Ac-Chg-Val-Pro(1-NpCH2O)-Nva (peptide),20 µM,–
"Compound 509 (Table 5): Ac-Asp-D-Glu-Chg-Chg-Pro(1-NpCH2O)-P1(R14 Et; 1R, 2R) (peptide)",0.015 µM,HLE [2]: > 300 µM
Compound 227 (Table 2): Ac-Chg-Val-Pro(1-NpCH2O)-Acca (peptide),–,HLE [2]: > 600 µM
Compound 232 (Table 2): AcOCH2-C(O)-Chg-Chg-Pro(1-NpCH2O)-Acca (peptide),1.4 µM,–
Compound 212 (Table 2): Ac-Asp-D-Glu-Ile-Val-Pro(O-Bn)-Acca (peptide),0.21 µM,PPE [4]: > 300 µM; HLE [2]: > 300 µM
"Compound 603 (Table 6): P4 Chg, P3 Val, R13 1-NpCH2O, R14 CH═CH2 (peptide)",0.36 µM,–
Compound 204 (Table 2): Ac-Asp-Asp-Ile-Val-Pro(o-tolyl-methoxy)-Nva (peptide),–,IC50 [5]: 9.4 µM
"Compound 602 (Table 6): P4 Chg, P3 Chg, R13 1-NpCH2O, R14 CH═CH2 (peptide)",0.13 µM,–
"Compound 601 (Table 6): P4 Chg, P3 Val, R13 OBn, R14 CH═CH2 (peptide)",3.61 µM,–
Compound 238 (Table 2): Ac-Chg-Val-Pro((4Br-Ph)O)-Acca (peptide),27 µM,HLE [2]: 195 µM
"Compound 604 (Table 6): P4 Chg, P3 Val, R13 OBn, R14 CH═CHBr* (peptide)",2.55 µM,–
Compound 239 (Table 2): Ac-Chg-Val-Pro((2Br-Ph)O)-Acca (peptide),27 µM,–
Compound 205 (Table 2): Ac-Asp-Asp-Ile-Val-Pro(m-tolyl-methoxy)-Nva (peptide),–,IC50 [5]: 6.7 µM
"Compound 518 (Table 5): Ac-Asp-D-Glu-Chg-Val-Pro(1-NpCH2O)-P1(R14 Et; 1R, 2R) (peptide)",0.011 µM,HLE [2]: > 300 µM
Compound 240 (Table 2): Ac-Chg-Val-Pro((3Br-Ph)O)-Acca (peptide),42 µM,–
Compound 231 (Table 2): Ac-Chg-Chg-Pro(1-NpCH2O)-Acca (peptide),2.6 µM,–
"Compound 272 (Table 2): Ac-Chg-Val-Pro((3,5-Br2-Ph)CH2O)-Acca (peptide)",27 µM,–
Compound 235 (Table 2): Boc-Chg-Chg-Pro(1-NpCH2O)-Acca (peptide),12 µM,–
Compound 234 (Table 2): Ac-Chg-Chg-Pro(O-Bn)-Acca (peptide),41 µM,–
Compound 114 (Table 1): Ac-Asp-Asp-Ile-Chg-Pro-Cys (peptide),–,IC50 [5]: 50 µM
"Compound 510 (Table 5): Ac-Chg-Val-Pro(1-NpCH2O)-P1(R14 CH2OCH2Ph; 1R, 2?) (peptide)",15.5 µM,–

# — patent US6767991
